What follows are sequences tested on Escherichia coli TOP10 (assay: shrunken log2 fold change of peptide-encoding DNA abundance (4.5 h post-induction vs induction); higher = less antimicrobial activity (less host growth inhibition)). Conditions: time post-induction: 4.5 h; library: site-saturation at positions 5, 18, 19, 20.
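Note: peptides expressed intracellularly from a pBAD plasmid library in pooled LB shake-flask culture, induced with 0.3% L-arabinose, DNA abundance read by NGS, three biological replicates, DESeq2 with apeglm shrinkage.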

Point of comparison: RRIRNRPPRLPRPRPRPEPNPRP, “shrunken log2 fold change” value 0.0829. Against it:
- RRIRVRPPRLPRPRPRPRTCPRP — lower, -0.143
- RRIRKRPPRLPRPRPRPYRVPRP — within 0.2 log units, -0.0373
- RRIRCRPPRLPRPRPRPQPDPRP — within 0.2 log units, 0.102
- RRIRRRPPRLPRPRPRPKYLPRP — within 0.2 log units, -0.042
- RRIRWRPPRLPRPRPRPFPGPRP — within 0.2 log units, -0.0199
- RRIRPRPPRLPRPRPRPWYGPRP — lower, -0.429
- RRIRGRPPRLPRPRPRPGIMPRP — higher, 0.374
- RRIRDRPPRLPRPRPRPGARPRP — higher, 0.863
- RRIRVRPPRLPRPRPRPHRPPRP — lower, -0.243
- RRIRARPPRLPRPRPRPAWDPRP — higher, 0.858
- RRIRWRPPRLPRPRPRPMPTPRP — higher, 0.721
- RRIRFRPPRLPRPRPRPHSEPRP — lower, -0.276
- RRIRGRPPRLPRPRPRPHEDPRP — higher, 3.55
- RRIRIRPPRLPRPRPRPFEVPRP — lower, -0.162
- RRIRFRPPRLPRPRPRPHQYPRP — lower, -0.88
- RRIRLRPPRLPRPRPRPNQMPRP — lower, -0.437
- RRIRGRPPRLPRPRPRPFVVPRP — within 0.2 log units, 0.222
- RRIRYRPPRLPRPRPRPDQRPRP — lower, -0.24
- RRIRYRPPRLPRPRPRPMNTPRP — lower, -1.25
- RRIRPRPPRLPRPRPRPEQHPRP — within 0.2 log units, 0.214
- RRIRWRPPRLPRPRPRPWAAPRP — higher, 0.351
- RRIRGRPPRLPRPRPRPQYSPRP — within 0.2 log units, 0.0802
- RRIRIRPPRLPRPRPRPQNGPRP — lower, -0.294
- RRIRNRPPRLPRPRPRPSKTPRP — lower, -0.454
- RRIRMRPPRLPRPRPRPEMDPRP — higher, 3.88
- RRIRKRPPRLPRPRPRPGELPRP — within 0.2 log units, -0.012
- RRIRGRPPRLPRPRPRPSACPRP — higher, 1.5
- RRIRSRPPRLPRPRPRPHMYPRP — lower, -0.37
- RRIRCRPPRLPRPRPRPVDNPRP — within 0.2 log units, -0.00721
- RRIRHRPPRLPRPRPRPAFAPRP — within 0.2 log units, 0.278
- RRIRNRPPRLPRPRPRPGIPPRP — within 0.2 log units, -0.0284
- RRIRYRPPRLPRPRPRPMVPPRP — lower, -0.909
- RRIRIRPPRLPRPRPRPTNFPRP — lower, -0.535
- RRIRYRPPRLPRPRPRPRGTPRP — within 0.2 log units, 0.173
- RRIRNRPPRLPRPRPRPTSEPRP — within 0.2 log units, 0.194
- RRIRPRPPRLPRPRPRPSDKPRP — lower, -0.264
- RRIRQRPPRLPRPRPRPDPGPRP — within 0.2 log units, -0.00151
- RRIRVRPPRLPRPRPRPEHMPRP — within 0.2 log units, -0.0512
- RRIRNRPPRLPRPRPRPDGYPRP — within 0.2 log units, 0.171
- RRIRQRPPRLPRPRPRPTKSPRP — within 0.2 log units, 0.00581
- RRIRVRPPRLPRPRPRPRDNPRP — within 0.2 log units, -0.109
- RRIRCRPPRLPRPRPRPFMDPRP — lower, -0.361
- RRIRWRPPRLPRPRPRPWCFPRP — within 0.2 log units, -0.0366
- RRIRVRPPRLPRPRPRPCPTPRP — lower, -0.17
- RRIRVRPPRLPRPRPRPHWCPRP — lower, -0.144
- RRIRFRPPRLPRPRPRPMHQPRP — within 0.2 log units, -0.0493
- RRIRDRPPRLPRPRPRPRHWPRP — higher, 0.548
- RRIRRRPPRLPRPRPRPQEIPRP — lower, -0.149
- RRIRYRPPRLPRPRPRPNTIPRP — lower, -1.05
- RRIRPRPPRLPRPRPRPLICPRP — lower, -0.164
- RRIRNRPPRLPRPRPRPHNWPRP — lower, -0.391
- RRIRWRPPRLPRPRPRPRRQPRP — within 0.2 log units, -0.0653
- RRIRCRPPRLPRPRPRPMPFPRP — within 0.2 log units, -0.0545
- RRIRTRPPRLPRPRPRPYGDPRP — within 0.2 log units, 0.00839
- RRIRRRPPRLPRPRPRPFKWPRP — lower, -0.157
- RRIRIRPPRLPRPRPRPEADPRP — within 0.2 log units, 0.196
- RRIRIRPPRLPRPRPRPLTAPRP — within 0.2 log units, 0.00505
- RRIRPRPPRLPRPRPRPILQPRP — lower, -0.224
- RRIRARPPRLPRPRPRPINNPRP — lower, -0.441
- RRIRARPPRLPRPRPRPDKLPRP — within 0.2 log units, 0.105
- RRIRIRPPRLPRPRPRPRLWPRP — within 0.2 log units, 0.0665
- RRIRIRPPRLPRPRPRPIAAPRP — within 0.2 log units, 0.0481
- RRIRLRPPRLPRPRPRPQEQPRP — within 0.2 log units, -0.00233
- RRIRGRPPRLPRPRPRPKGLPRP — within 0.2 log units, 0.016
- RRIRMRPPRLPRPRPRPPDSPRP — within 0.2 log units, 0.198
- RRIRARPPRLPRPRPRPWITPRP — within 0.2 log units, -0.0939
- RRIRMRPPRLPRPRPRPANSPRP — within 0.2 log units, 0.0248
- RRIRARPPRLPRPRPRPAEVPRP — within 0.2 log units, 0.129
- RRIRCRPPRLPRPRPRPMLFPRP — higher, 0.545
- RRIRIRPPRLPRPRPRPMNFPRP — within 0.2 log units, -0.0453
- RRIRPRPPRLPRPRPRPLTTPRP — within 0.2 log units, 0.135
- RRIRKRPPRLPRPRPRPTIVPRP — within 0.2 log units, -0.0951
- RRIRHRPPRLPRPRPRPAYTPRP — lower, -0.482
- RRIRWRPPRLPRPRPRPIWQPRP — within 0.2 log units, -0.0567
- RRIRMRPPRLPRPRPRPWIWPRP — within 0.2 log units, 0.106
- RRIRSRPPRLPRPRPRPCKWPRP — within 0.2 log units, -0.053
- RRIRKRPPRLPRPRPRPEKVPRP — within 0.2 log units, 0.112
- RRIRWRPPRLPRPRPRPVGTPRP — within 0.2 log units, 0.235
- RRIRLRPPRLPRPRPRPIMCPRP — within 0.2 log units, 0.02
- RRIRLRPPRLPRPRPRPGFQPRP — within 0.2 log units, -0.0314
- RRIRERPPRLPRPRPRPPRYPRP — lower, -0.202
- RRIRNRPPRLPRPRPRPCRCPRP — lower, -0.307
- RRIRSRPPRLPRPRPRPQSAPRP — within 0.2 log units, 0.108
- RRIRNRPPRLPRPRPRPWGEPRP — within 0.2 log units, 0.157
- RRIRVRPPRLPRPRPRPSCIPRP — lower, -0.423
- RRIRYRPPRLPRPRPRPAGDPRP — lower, -0.232
- RRIRYRPPRLPRPRPRPGYHPRP — within 0.2 log units, -0.00992
- RRIRDRPPRLPRPRPRPEASPRP — higher, 0.447
- RRIRRRPPRLPRPRPRPVTYPRP — within 0.2 log units, -0.0642
- RRIRLRPPRLPRPRPRPLTHPRP — within 0.2 log units, -0.0644
- RRIRGRPPRLPRPRPRPECVPRP — higher, 1.72
- RRIRMRPPRLPRPRPRPIYSPRP — within 0.2 log units, -0.0833
- RRIRQRPPRLPRPRPRPAHAPRP — within 0.2 log units, 0.0691
- RRIRFRPPRLPRPRPRPFMFPRP — lower, -0.739
- RRIRWRPPRLPRPRPRPYFQPRP — higher, 1.83
- RRIRWRPPRLPRPRPRPFWTPRP — within 0.2 log units, 0.0519
- RRIRQRPPRLPRPRPRPTLEPRP — within 0.2 log units, 0.0818
- RRIRERPPRLPRPRPRPSHIPRP — lower, -0.25
- RRIRSRPPRLPRPRPRPWIGPRP — within 0.2 log units, -0.0735
- RRIRMRPPRLPRPRPRPALEPRP — higher, 0.347
- RRIRVRPPRLPRPRPRPHFMPRP — higher, 1.55
- RRIRVRPPRLPRPRPRPHSCPRP — within 0.2 log units, -0.0621
- RRIRFRPPRLPRPRPRPHHCPRP — lower, -0.198
- RRIRNRPPRLPRPRPRPPFLPRP — within 0.2 log units, -0.0418
- RRIRVRPPRLPRPRPRPQRVPRP — within 0.2 log units, 0.0942
- RRIRTRPPRLPRPRPRPDPPPRP — higher, 0.517
- RRIRIRPPRLPRPRPRPVEPPRP — within 0.2 log units, -0.115
- RRIRGRPPRLPRPRPRPHHAPRP — within 0.2 log units, 0.254
- RRIRNRPPRLPRPRPRPAHYPRP — lower, -0.299
- RRIRLRPPRLPRPRPRPAVGPRP — within 0.2 log units, -0.0315
- RRIRDRPPRLPRPRPRPRFRPRP — higher, 0.951
- RRIRDRPPRLPRPRPRPVADPRP — within 0.2 log units, 0.22
- RRIRGRPPRLPRPRPRPEELPRP — higher, 1.39
- RRIRLRPPRLPRPRPRPNSEPRP — within 0.2 log units, -0.0888
- RRIRSRPPRLPRPRPRPCKDPRP — lower, -0.153
- RRIRLRPPRLPRPRPRPFTTPRP — within 0.2 log units, 0.0966
- RRIRGRPPRLPRPRPRPFIHPRP — within 0.2 log units, 0.0282
- RRIRKRPPRLPRPRPRPGNFPRP — lower, -0.373
- RRIRHRPPRLPRPRPRPYLMPRP — lower, -0.554
- RRIRSRPPRLPRPRPRPSGLPRP — within 0.2 log units, 0.177
- RRIRPRPPRLPRPRPRPGWDPRP — within 0.2 log units, 0.011
- RRIRARPPRLPRPRPRPSMNPRP — within 0.2 log units, -0.032
- RRIRERPPRLPRPRPRPVHSPRP — within 0.2 log units, -0.0947
- RRIRMRPPRLPRPRPRPGYLPRP — within 0.2 log units, 0.0963
